Laboratory results: IntAct's records for PubMed 23932592

B1: Syntaxin-6 (Homo sapiens), O43752 (parent)
chain: MSMEDPFFVVKGEVQKAVNTAQGLFQRWTELLQDPSTATREEIDWTTNELRNNLRSIEWDLEDLDETISIVEANPRKFNLDATELSIRKAFITSTRQVVRDMKDQMSTSSVQALAERKNRQALLGDSGSQNWSTGTTDKYGRLDRELQRANSHFIEEQQAQQQLIVEQQDEQLELVSGSIGVLKNMSQRIGGELEEQAVMLEDFSHELESTQSRLDNVMKKLAKVSHMTSDRRQWCAIAILFAVLLVVLILFLVL
partner: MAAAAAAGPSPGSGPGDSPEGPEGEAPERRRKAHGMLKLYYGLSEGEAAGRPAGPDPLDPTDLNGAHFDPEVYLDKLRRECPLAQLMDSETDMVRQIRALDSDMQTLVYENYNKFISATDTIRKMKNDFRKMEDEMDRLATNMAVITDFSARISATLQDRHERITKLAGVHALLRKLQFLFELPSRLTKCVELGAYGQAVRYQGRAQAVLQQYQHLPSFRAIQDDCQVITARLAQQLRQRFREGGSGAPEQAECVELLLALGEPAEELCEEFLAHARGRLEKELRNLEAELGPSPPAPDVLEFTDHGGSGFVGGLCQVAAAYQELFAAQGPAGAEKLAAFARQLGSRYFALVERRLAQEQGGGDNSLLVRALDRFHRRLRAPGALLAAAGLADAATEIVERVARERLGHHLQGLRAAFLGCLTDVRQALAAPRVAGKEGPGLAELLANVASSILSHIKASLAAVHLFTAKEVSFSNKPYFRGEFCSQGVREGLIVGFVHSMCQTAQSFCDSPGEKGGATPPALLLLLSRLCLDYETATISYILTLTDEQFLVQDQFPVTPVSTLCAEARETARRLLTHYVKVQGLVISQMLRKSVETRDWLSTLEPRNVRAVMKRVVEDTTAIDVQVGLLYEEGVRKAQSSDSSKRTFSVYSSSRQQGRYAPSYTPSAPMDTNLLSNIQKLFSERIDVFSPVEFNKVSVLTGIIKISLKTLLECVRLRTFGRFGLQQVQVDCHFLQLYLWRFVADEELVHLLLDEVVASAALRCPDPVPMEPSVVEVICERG
B2: Vacuolar protein sorting-associated protein 51 homolog (Homo sapiens), Q9UID3-1 (parent)
chain: B1 partner
partner: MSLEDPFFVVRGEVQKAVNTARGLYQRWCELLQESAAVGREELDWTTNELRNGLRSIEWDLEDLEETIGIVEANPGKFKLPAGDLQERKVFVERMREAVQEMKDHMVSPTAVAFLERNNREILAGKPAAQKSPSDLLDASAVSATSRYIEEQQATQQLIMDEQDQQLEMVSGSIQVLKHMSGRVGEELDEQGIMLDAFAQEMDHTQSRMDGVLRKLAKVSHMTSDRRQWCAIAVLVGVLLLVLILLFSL
B3: Syntaxin-10 (Homo sapiens), O60499-1 (parent)
chain: B2 partner
partner: B1 partner
B4: Vacuolar protein sorting-associated protein 51 homolog (Homo sapiens), Q9UID3-1 (parent)
chain: B1 partner
partner: B1 chain

Variants of: B1
Conditions: with VPS51, Q9UID3-1

Variant | effect of a mutation on the interaction
P6A | disrupting interaction strength
D5L | disrupting interaction strength
F7L | disrupting interaction strength
R88M | disrupting interaction strength

Variants of: B2
Conditions: with STX10, O60499-1

Variant | effect of a mutation on the interaction
Y40A | disrupting interaction strength
Y41A | disrupting interaction strength
L37A | disrupting interaction strength

Variants of: B2
Conditions: with STX10, O60499-1
Remark: another data set of the same source

Variant | effect of a mutation on the interaction
Y40A;Y41A | disrupting interaction strength

Variants of: B3
Conditions: with VPS51, Q9UID3-1

Variant | effect of a mutation on the interaction
P6A | disrupting interaction strength
D5L | disrupting interaction strength
F7L | disrupting interaction strength
R88M | disrupting interaction strength

Variants of: B4
Conditions: with stx6_human STX6, O43752

Variant | effect of a mutation on the interaction
Y40A;Y41A | disrupting interaction strength

Variants of: B4
Conditions: with stx6_human STX6, O43752
Remark: another data set of the same source

Variant | effect of a mutation on the interaction
Y40A | disrupting interaction strength
L37A | disrupting interaction strength
Y41A | disrupting interaction strength
